From PMC4173783 come the findings set out here.

Assay [1] concerns the target Plasmodium falciparum EBA-175 region II (P. falciparum).
Assay [2] has as its target recombinant GpA extracellular domain fused to Fc and His tag (rGpA-Fc-His) (human) (UniProt P02724). The assay is described as follows: AUC.
Assay [3] has the same target. The assay is described as follows: SDS-PAGE without and with reducing agent.

“recombinant GpA extracellular domain fused to Fc and His tag (rGpA-Fc-His) (from UniProt P02724 23-84) (Fc fusion)” had a parasite growth with 30 µM rGpA, strains 3D7, Dd2 and FVO/FCR1 in assay [1] of 50%. Further, the stoichiometry N in assay [2] and in assay [3] was 2 throughout.

The term stoichiometry N denotes a count of units in the complex or per binding partner.
